According to the supplement of paper PMC9170038:

Key:
MS2 coat protein [1] = experiment: apparent KD of MS2 coat protein, switch OFF state (with FMN for OFF switches, without FMN for ON switches); designed switch direction (-1 OFF switch, 1 ON switch): 1; higher = weaker reporter binding; conditions: FMN input: 0 or 200 uM; Eterna round: R93 (includes R88 designs)
How it was run: (§1)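 Illumina sequencing clusters were used for on-chip transcription of designed RNA switches. Titration with SNAP-549-labelled MS2 coat protein followed, in twofold steps from 0.7 or 1.5 nM to 3 µM in 100 mM Tris-HCl pH 7.5, 80 mM KCl, 4 mM MgCl2, without or with constant ligand. Apparent KD is each design's median of fits to normalised cluster binding curves.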

MS2 coat protein [2] = experiment: apparent KD of MS2 coat protein, switch ON state; designed switch direction (-1 OFF switch, 1 ON switch): 1; higher = weaker reporter binding; conditions: FMN input: 0 or 200 uM; Eterna round: R93 (includes R88 designs)
How it was run: as §1

Row | Sequence | apparent KD of MS2 coat protein (MS2 coat protein [1]) [µM] | apparent KD of MS2 coat protein (MS2 coat protein [2]) [µM]
1 | AAAAGACAUGAGGAUCACCCAUGUGAAAACGUAGGAGGAUAUGUCGUGAAAAAAGACUUGACAGAAGGCCUGUGUC [SS1 - 34] | 0.0635 | 0.0281
2 | UAAUAAUAAACCAAGGAUAUGGAGUUUCCAACAUGAGGAUCACCCAUGUUUUGCUUGUAAUCGAUCCAGAAGGUGGAGCCAAAUA [JR_SS002_Sub1006] | 0.0684 | 0.0356
3 | AAAUAAAUAAGAGAGGAUAUGUCAGAGAAAACAUGAGGAUCACCCAUGUAAUAAUAAAAAGGGUGACAGAAGGCUCAAAACAAAC [Hyphema modified] | 0.0585 | 0.0323
4 | CACCCGUGUAUGAAGGAUAUGUAGACCCUGACAUGAGGAUCACCCAUGUAACUGUGGGUCCCAUCGCAGAAGGUCGAGACACGGG [Ribitite] | 0.18 | 0.0224
5 | AAAAGACAUGAGGAUCACCCAUGUCCUCGGACAUGAGGAUAUGUACAGACUUCGGUCUGUACAGAAGGCAUGAAAA [SS1 - 1064] | 0.233 | 0.052
6 | CGCUCACAUGAGGAUCACCCAUGUCCUAGGAGGUCAGGAUAUAGCUCGGAUGCGUUGAGGCUAGAAGGGACAGGUG [JR_SS001_Sub606] | 0.0595 | 0.0786
7 | AUUCCAAAUAGUCAGGAUAUCAGGAGUAAGACAUGAGGAUCACCCAUGUACUUAGUAAAAGUAACUGAGAAGGGACAGGGUGUAA [JR_SS002_Sub406] | 0.0242 | 0.03
8 | AAAAUACAUGAGGAUCACCCAUGUGAAAAUAUGGGAGGAUAUACCGAAAAAAAAAAAACGGUAGAAGGCCCUAAAA [SS! 1 MT 6] | 0.0416 | 0.0179
9 | AGAAAUAAAUGAGAGGAUAUCCAAAAGAAAACAUGAGGAUCACCCAUGUAAAAGAAAAUAAAGUGGGAGAAGGCUCGAAAUAAAG [80%, More Helter Skelter 2] | 0.0435 | 0.0233
10 | AGGAAACAUGAGGAUCACCCAUGUAAAAAAUAGGGAGGAUAUACUAGAAGAAACAAAAUAGUAGAAGGCUCAAAAA [75%, Ex sub1, 25] | 0.03 | 0.0129
11 | GAAAAACAUGAGGAUCACCCAUGUAGAAAUAUGGGAGGAUAUACGAAGUCGAAAGUCAAAGUAGAAGGCCUAAAAG [Garnet 28] | 0.108 | 0.0313
12 | AAAAUAAAAUAAAAGGAUAUAAAAUAAAAAACAUGAGGAUCACCCAUGUAAAAACAUGGGUGAAAAAAGAAGGAAAAAUAAAAAA [SS2: 70 No MS2] | 0.00174 | 0.0367
13 | ACUUCACAUGAGGAUCACCCAUGUCAGGCCGGACUAGGAUAUUAUCAAGCAGCGUAACCAUAAGAAGGAGUAGGAA [JR_SS001_Sub313] | 0.0825 | 0.0577
14 | GGUACAUCUAGUUAGGAUAUCAGAUGUAAGACAUGAGGAUCACCCAUGUCCUAAGAAUAGGUAACUGAGAAGGAACAGGGAGUCC [JR_SS002_Sub417] | 0.0298 | 0.0365
15 | ACAAGACAUGAGGAUCACCCAUGUAAAGAAAACGCAGGAUAUGCAAAAAAAUUCAUGGGUGCAGAAGGGCGAAAAA [Default title] | 0.0342 | 0.153
16 | GAAAAACAUGAGGAUCACCCAUGUAGAAAUAUGGGAGGAUAUACAAAGACGAAAGUCAAAGUAGAAGGCCUAAGAG [Garnet 22] | 0.0826 | 0.0318
17 | GGGAGGAAGAGAGAGGAUAUCCAAAGGAAAACAUGAGGAUCACCCAUGUAAAAGGUAGGAAAUUGGGAGAAGGCUCAAGAGACGG [salish99-ss2-053] | 0.0342 | 0.0267
18 | CUACAACAUGAGGAUCACCCAUGUCGUAGAAAUCAAGGAUAUGGGUCGGUAACAUGCGUACCAGAAGGUGAGGAAA [Rebicequ] | 0.0304 | 0.0293
19 | GAUCCAACUAGUCAGGAUAUCAGGCGUAAGACAUGAGGAUCACCCAUGUCCUAAGAACAAGUAACUGAGAAGGGACAGGGCGACC [JR_SS002_Sub412] | 0.0743 | 0.0705
20 | AAGAAACAUGAGGAUCACCCAUGUCAAGAGAGACAAGGAUAUCUGAAUUAAUUAAAUUAAGGAGAAGGUGUGAAAA [71%, Same state of confusion2, 1] | 0.253 | 0.201

Row | Sequence | apparent KD of MS2 coat protein (MS2 coat protein [1]) [µM] | apparent KD of MS2 coat protein (MS2 coat protein [2]) [µM]
21 | AUAAAACAUGAGGAUCACCCAUGUAGCUAAAGCACAGGAUAUAGGAGUCCGAGCAGACAUCUAGAAGGGUGGAAAA [Veeslelein] | 0.0886 | 0.0575
22 | GAAAAACAUGAGGAUCACCCAUGUGAGAAUAUGGGAGGAUAUUCAAAGACGAGAGUCAAAGAAGAAGGCCUAAAAG [Mat - Same State 1 - Eli mod - 38] | 0.161 | 0.0293
23 | CAGCGCUGUCGAGAGGAUAUGCGGUGAUGGACAUGAGGAUCACCCAUGUAAGCGAUAGCAUUACGGCAGAAGGCUCUGCAGCUGC [Riaranzaes] | 0.0696 | 0.0187
24 | CGUGAACAUGAGGAUCACCCAUGUAGCGGGAGACAAGGAUAUGGGAGGCGAAAUCGCGGAUCAGAAGGUGUAAGCG [Zace] | 0.0165 | 0.0164
25 | AAUAUAUUAAGUGAGGAUAUCAAAGAAAAAACAUGAGGAUCACCCAUGUGGGAAACCUGGUCGGGUGAGAAGGCACUUAAUAUAU [Samwise Clockwise 28 - Jieux - Same State 2] | 0.314 | 0.0313
26 | UGUAGGAAGAGAGAGGAUAUCCAAAGGAAAACAUGAGGAUCACCCAUGUAAAAGGUAGGAAAUUGGGAGAAGGCUCAAGAGAGAG [salish99-ss2-082] | 0.0527 | 0.029
27 | GAAAAACAUGAGGAUCACCCAUGUGAAAAUAUGGAAGGAUAUACAAAGACGAAAGUCAAAGUAGAAGGUCUAAAAG [Mat - Same State 1 - Eli mod - D14] | 0.0225 | 0.015
28 | ACGAGGAAGAGAGAGGAUAUCCAAAGGAAAACAUGAGGAUCACCCAUGUAAAAGGUAGGAAAUUGGGAGAAGGCUCAAGAGAGAG [salish99-ss2-069] | 0.0346 | 0.0324
29 | AAUAUAUUAUUUAAGGAUAUCAUAGGAAACACAUGAGGAUCACCCAUGUGGGAAACUUGGUCGGGUGAGAAGGUGGAUAAUAUAU [Samwise Clockwise 36 - Jieux - Same State 2] | 0.0246 | 0.0174
30 | AAGAUACAUGAGGAUCACCCAUGUUUUGGUGGGUCAGGAUAUAAAAAGAAUGAGAGAAAGUUAGAAGGGACAAAGA [JR_SS001_Sub005] | 0.309 | 0.201
31 | AAGAAACAUGAGGAUCACCCAUGUAGAAAUAUGGGAGGAUAUACGAAGACGAAAGUCAAAGUAGAAGGCCUAAGAA [Mat - Same State 1 - Eli mod - D105] | 0.082 | 0.0363
32 | AAAUAACAUGAGGAUCACCCAUGUUGCAACGGUUGAGGAUAUGUGGGUGAAAAUAGCAUGGCAGAAGGCGAGUGUA [SameState1 Malc#27] | 0.0319 | 0.0581
33 | AAAUAACAUGAGGAUCACCCAUGUUACAACAUUACAGGAUAUGUGGGUGAAAAUAGCAUGACAGAAGGGUACUGUA [SameState1 Malc#34] | 0.393 | 0.479
34 | AGGAAACAUGAGGAUCACCCAUGUAAAAAUAUGGGAGGAUAUUGGAAUAAAAUAAAGAACCGAGAAGGCCUAAAAA [59%, Flamingo, 6] | 0.219 | 0.0323
35 | AAAAAACAUGAGGAUCACCCAUGUCUUCGGACGUGAGGAUAUGUACAGACUUCGGUCUGUACAGAAGGCAUGAAAA [SS1 - 1058] | 0.381 | 0.176
36 | AAAAAAAAAACUCAGGAUAUAGAUCGUUGAACAUGAGGAUCACCCAUGUAGUGAAAAGCGAAAAACUAGAAGGGAGGAAAAAAAAA [SameState2-02] | 0.0287 | 0.0133
37 | GGGCAAGAGAGAGAGGAUAUCCAAAGGAAAACAUGAGGAUCACCCAUGUAGAAGGUAGGAAAUUGGGAGAAGGCUCAAGAGAGAG [salish99-ss2-137] | 0.0126 | 0.00851
38 | AAAAAACAUGAGGAUCACCCAUGUCGAAAGACAUGAGGAUAUGUACAGACUUCGGUCUGUACAGAAGGCAUGUAAA [SS1 - 1016] | 0.813 | 0.104
39 | CGAAAGGAGAGAGAGGAUAUCCAAAGGAAAACAUGAGGAUCACCCAUGUAGAAGGUAGGAGAUUGGGAGAAGGCUCAAGACAGAG [salish99-ss2-143(!!!!)] | 0.0361 | 0.0213
